This is an account of results in publication PMC8599648 (Molecular microbiology, 2021).

The labels stand for the following.
B1: YnfK I184Y (enzyme, E. coli (strain MG1655), UniProt P0A6E9 1-231, looked up)
chain: MLKRFFITGTDTSVGKTVVSRALLQALASQGKTVAGYKPVAKGSKETPEGLRNKDALVLQSVSTIELPYEAVNPIALSEEESSVAHSCPINYTLISNGLANLTEKVDHVVVEGTGGWRSLMNDLRPLSEWVVQEQLPVLMVVGIQEGCINHALLTAQAIANDGLPLIGWVANRINPGLAHYAEYIDVLGKKLPAPLIGELPYLPRAEQRELGQYIRLAMLRSVLAVDRVTV
B2: YnfK T114A/I184Y (enzyme, E. coli (strain MG1655), UniProt P0A6E9 1-231, looked up)
chain: MLKRFFITGTDTSVGKTVVSRALLQALASQGKTVAGYKPVAKGSKETPEGLRNKDALVLQSVSTIELPYEAVNPIALSEEESSVAHSCPINYTLISNGLANLTEKVDHVVVEGAGGWRSLMNDLRPLSEWVVQEQLPVLMVVGIQEGCINHALLTAQAIANDGLPLIGWVANRINPGLAHYAEYIDVLGKKLPAPLIGELPYLPRAEQRELGQYIRLAMLRSVLAVDRVTV
B3: YnfK S13E/I184Y (enzyme, E. coli (strain MG1655), UniProt P0A6E9 1-231, looked up)
chain: MLKRFFITGTDTEVGKTVVSRALLQALASQGKTVAGYKPVAKGSKETPEGLRNKDALVLQSVSTIELPYEAVNPIALSEEESSVAHSCPINYTLISNGLANLTEKVDHVVVEGTGGWRSLMNDLRPLSEWVVQEQLPVLMVVGIQEGCINHALLTAQAIANDGLPLIGWVANRINPGLAHYAEYIDVLGKKLPAPLIGELPYLPRAEQRELGQYIRLAMLRSVLAVDRVTV
B4: YnfK S13E (enzyme, E. coli (strain MG1655), UniProt P0A6E9 1-231, looked up)
chain: MLKRFFITGTDTEVGKTVVSRALLQALASQGKTVAGYKPVAKGSKETPEGLRNKDALVLQSVSTIELPYEAVNPIALSEEESSVAHSCPINYTLISNGLANLTEKVDHVVVEGTGGWRSLMNDLRPLSEWVVQEQLPVLMVVGIQEGCINHALLTAQAIANDGLPLIGWVANRINPGLAHYAEIIDVLGKKLPAPLIGELPYLPRAEQRELGQYIRLAMLRSVLAVDRVTV
B5: YnfK T114A (enzyme, E. coli (strain MG1655), UniProt P0A6E9 1-231, looked up)
chain: MLKRFFITGTDTSVGKTVVSRALLQALASQGKTVAGYKPVAKGSKETPEGLRNKDALVLQSVSTIELPYEAVNPIALSEEESSVAHSCPINYTLISNGLANLTEKVDHVVVEGAGGWRSLMNDLRPLSEWVVQEQLPVLMVVGIQEGCINHALLTAQAIANDGLPLIGWVANRINPGLAHYAEIIDVLGKKLPAPLIGELPYLPRAEQRELGQYIRLAMLRSVLAVDRVTV
B6: FNR D154A (natural protein, E. coli (strain MG1655), UniProt P0A9E5 1-250, looked up)
chain: MIPEKRIIRRIQSGGCAIHCQDCSISQLCIPFTLNEHELDQLDNIIERKKPIQKGQTLFKAGDELKSLYAIRSGTIKSYTITEQGDEQITGFHLAGDLVGFDAIGSGHHPSFAQALETSMVCEIPFETLDDLSGKMPNLRQQMMRLMSGEIKGAQDMILLLSKKNAEERLAAFIYNLSRRFAQRGFSPREFRLTMTRGDIGNYLGLTVETISRLLGRFQKSGMLAVKGKYITIENNDALAQLAGHTRNVA

The first data set concerns the molecule itself. The experiment in a line: cross-linking.
Turning to B1, the binding result is on record as “binds”.
Same read-out and setting: the result for B2 reads “binds”; that for B3, “binds”.
The same measure, in the same setting: the result for B4 reads “binds”; that for B5, “binds”.

Another data set concerns the molecule itself. Description: SEC.
As usually defined, the stoichiometry N is the number of molecules, sites or subunits per partner or assembly. As to B6, the “stoichiometry N” value was 2.
